According to publication PMC7406681, “Structural characterization of the C-terminal domain of SARS-CoV-2 nucleocapsid protein”:

Experiments:
[1] = target: T1, SARS-CoV-2 nucleocapsid C-terminal domain (N-CTD) (SARS-CoV-2 (Wuhan-Hu-1), UniProt P0DTC9 248-364); assay: EMSA; N-CTD:DNA molar ratios 2:1 to 10:1; details: protein: recombinant, tags: N-terminal His6 removed by TEV, residual Gly-Ala-Ser at N-terminus, chain copies: 2
[2] = target: T1, SARS-CoV-2 nucleocapsid C-terminal …; assay: EMSA; details: protein: recombinant; tags: N-terminal His6 removed by TEV; residual Gly-Ala-Ser at N-terminus; chain copies: 2

TGTTCTCTAAACGAACT (ssDNA) [17-mer ssDNA (DNA mimic of SL3/TRS RNA)]
binding result [1]: binds

B1: 17-bp dsDNA (DNA mimic of SL3/TRS RNA) (dsDNA)
DNA 1: TGTTCTCTAAACGAACT
DNA 2: AGTTCGTTTAGAGAACA
binding result ([1]; blunt): binds

UGUUCUCUAAACGAACU (ssRNA) [17-mer ssRNA (5' UTR SL3/TRS)]
binding result [2]: binds
